Reference: publication PMC3858281, “Structural Characterisation of the Nuclear Import Receptor Importin Alpha in Complex with the Bipartite NLS of Prp20” (PLoS ONE, 2013)

Molecular target: Mouse IMPαΔIBB (residues 70–529) (mouse, UniProt P52293 70-529)
Assay: crystal structure; complex of IMPαΔIBB and Prp20 NLS (GST tag removed by thrombin) in 20 mM Tris pH 7.8, 125 mM NaCl, 20 mg/mL; crystals in 500 mM sodium citrate pH 6–8, 10 mM DTT; 2.1 Å
Details: both partners purified

binding result: binds
B1: Prp20 (S. cerevisiae RanGEF) NLS (residues 3–23) (peptide)
chain: KRTVATNGDASGAHRAKKMSK
notes: Prp20 (RanGEF), S. cerevisiae, bipartite NLS, residues 3-23; Only KR4 and RAKKMSK23 are in the final model; also called Prp20 NLS; Prp20NLS
